The values below come from patent publication US20130004513A1.

The target of the test is Human CD4 on CD4+CD25+ regulatory T cells of healthy donors (human) (UniProt P01730). The experiment in a line: cell-based or functional assay.

Negative control (antibody) registered a % Inh2 of 7%, a % Inh3 of 5.2% and an Avg. % inhibition of 5.1%.
